The text below walks through data of US20240279318A1 (NANJING LEGEND BIOTECH, published 2024).

Residue numbers refer to the chain shown, from its start.

B1: AS170036 VL1VH1-56N98F (scFv)
scFv: QSALTQPRSVSGSPGQSVTISCAGTSSDVGSENYVSWYQQHPGKAPKLMIYQVNKRASGVPDRFSGSKSGNTASLTISGLQAEDEADYYCASYRSSDFNIVFGGGTKLTVLGGGGSGGGGSGGGGSEVQLVESGGGLVQPGGSLRLSCAASGFTFSSYAMSWVRQAPGKGLEWVSTINSGTNSPYYADSVKGRFTISRDNSKNTLYLQMNSLRAEDTAVYYCAKNFFDGSWFLGPPAMDYWGQGTLVTVSSHHHHHH
notes: also called 04-AS170036 VL1VH1-56N98F
B2: AS170036 VL1VH1-56N98I (scFv)
scFv: B1 scFv with F98I
notes: also called 05-AS170036 VL1VH1-56N98I
B3: AS170036 VL1VH1-56N98Q (scFv)
scFv: B1 scFv with F98Q
notes: also called 06-AS170036 VL1VH1-56N98Q
B4: AS170036 VL1VH1-56N108A (scFv)
scFv: B1 scFv with F98H, G234A
notes: also called 19-AS170036 VL1VH1-56N108A
B5: AS170036 VL1VH1-57K98Q108S (scFv)
scFv: B1 scFv with F98Q, N182G, S183K, G234S
notes: also called 75-AS170036 VL1VH1-57K98Q108S
B6: AS170036 VL1VH1-57M98F108D (scFv)
scFv: B1 scFv with N182G, S183M, G234D
notes: also called 77-AS170036 VL1VH1-57M98F108D
B7: AS170036 VL1VH1-57M98I108D (scFv)
scFv: B1 scFv with F98I, N182G, S183M, G234D
notes: also called 80-AS170036 VL1VH1-57M98I108D
B8: AS170036 VL1VH1-57M98I108A (scFv)
scFv: B1 scFv with F98I, N182G, S183M, G234A
notes: also called 79-AS170036 VL1VH1-57M98I108A
B9: AS170036 VL1VH1-57M98Q108D (scFv)
scFv: B1 scFv with F98Q, N182G, S183M, G234D
notes: also called 83-AS170036 VL1VH1-57M98Q108D
B10: AS170036 VL1VH1-57M98Q108S (scFv)
scFv: B1 scFv with F98Q, N182G, S183M, G234S
notes: also called 84-AS170036 VL1VH1-57M98Q108S
B11: AS170036 VL1VH1-57M98F108S (scFv)
scFv: B1 scFv with N182G, S183M, G234S
notes: also called 78-AS170036 VL1VH1-57M98F108S
B12: AS170036 VL1VH1-57M98F108A (scFv)
scFv: B1 scFv with N182G, S183M, G234A
notes: also called 76-AS170036 VL1VH1-57M98F108A
B13: AS170036 VL1VH1-57M98Q108A (scFv)
scFv: B1 scFv with F98Q, N182G, S183M, G234A
notes: also called 82-AS170036 VL1VH1-57M98Q108A

One assay concerns the target T1, AFP158/HLA-A*02:01 complex (human).
T1 construct: flowed as analyte in SPR
The assay can be described thus: SPR, fold vs AS170036 VL1VH1. (In general: In SPR one partner is held on a chip, and binding of the other changes the refractive index at the surface.)
Experimental: (§1) The experiment was carried out as follows. The crude scFv protein were captured onto the sensorchip. Different concentrations (320, 160, 40 nM) of AFP158/HLA-A*02:01 complex flowed over the sensorchip surface, and were allowed to bind the antibody fragment for 100 s followed by injection of the running buffer to allow dissociation of the complex. On-rate (kd) and off-rate (kd) were calculated based on association and dissociation curve, and were used to estimate the equilibrium dissociation constant (KD).
(§2) The crude scFv muteins were then subjected to SPR affinity measurement by the method mentioned above.
Take B1: the Affinity increase was determined as 8.2 fold.
On the same count and under the same terms, the figure for B2 is 10.7 fold; for B3 it is 9.7 fold.
As to B4, the Affinity increase turned out to be 14.9 fold.

The next assay has as its target T1, AFP158/HLA-A*02:01 complex. The assay can be described thus: SPR, fold vs AS170036 VL1VH1.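 Note: crude scFv muteins immobilised on a sensor chip, peptide–MHC complex passed over at several concentrations, binding then buffer-driven dissociation, KD estimated from on- and off-rates.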 This is another data set of the same source.
Experimental: as §1, §2
Regarding B5, the Affinity increase was 33 fold.
Same read-out and setting: the result for B6 reads 36.2 fold; that for B7, 20.5 fold; that for B8, 28 fold.
In turn, B9 displayed an Affinity increase of 29.6 fold.
On to B10, for which the Affinity increase came out at 16.7 fold.
In turn, B11 gave an Affinity increase of 18 fold.
On the same count and under the same terms, the figure for B12 is 43.4 fold; for B13 it is 43 fold.

The target of the next assay is T1, AFP158/HLA-A*02:01 complex. In words: SPR, crude scFv captured, pMHC analyte.
Experimental: as §1, §2
On to B1, for which the Kd (as a rule, the concentration at which binding is half-saturated) is 27 nM; the koff (usually the rate constant with which the complex falls apart) amounted to 0.0097 s⁻¹; the kon (as a rule, a measure of how fast the partners come together) amounted to 360000 M⁻¹ s⁻¹.
Taken in the same sequence, the figures for B2 were 21 nM, 0.0056 s⁻¹ and 270000 M⁻¹ s⁻¹.
B3 yielded a Kd of 23 nM, a koff of 0.0058 s⁻¹ and a kon of 250000 M⁻¹ s⁻¹.
On to B4, for which the Kd was found to be 15 nM, the koff amounted to 0.0036 s⁻¹ and the kon turned out to be 240000 M⁻¹ s⁻¹.

The target of a further assay is T1, AFP158/HLA-A*02:01 complex. The assay can be described thus: SPR, crude scFv captured, pMHC analyte. The source holds these as a separate data set.
Experimental: as §1, §2
In the case of B5, the affinity, expressed as Kd, was 6.8 nM; the koff was 0.00086 s⁻¹; the kon was 130000 M⁻¹ s⁻¹.
Molecule B6 had a Kd of 6.2 nM, a koff of 0.0018 s⁻¹ and a kon of 280000 M⁻¹ s⁻¹.
As for B7, the Kd worked out at 11 nM, the koff was found to be 0.0029 s⁻¹ and the kon was determined as 260000 M⁻¹ s⁻¹.
Turning to B8, the Kd amounted to 8.1 nM, the koff came to 0.0018 s⁻¹ and the kon came out at 220000 M⁻¹ s⁻¹.
In turn, B9 yielded a Kd of 7.6 nM, a koff of 0.0018 s⁻¹ and a kon of 240000 M⁻¹ s⁻¹.
Turning to B10, binding was put at a Kd of 14 nM, the koff turned out to be 0.0021 s⁻¹ and the on-rate (kon) came to 160000 M⁻¹ s⁻¹.
In the case of B11, the Kd came out at 13 nM, the koff came out at 0.0024 s⁻¹ and the kon was 190000 M⁻¹ s⁻¹.
Regarding B12, binding was characterised by a dissociation constant (Kd) of 5.2 nM, the koff is 0.0013 s⁻¹ and the kon stood at 260000 M⁻¹ s⁻¹.
Taken in the same sequence, the figures for B13 were 5.2 nM, 0.0012 s⁻¹ and 220000 M⁻¹ s⁻¹.
